Experimental findings from article PMC4102243, “Rett-causing mutations reveal two domains critical for MeCP2 function and for toxicity in MECP2 duplication syndrome mice” are described below.

This series deals with MeCP2 C-terminal fragment WT (human, UniProt P51608 274-340). Kind of series: EMSA; 10 mM Tris-HCl pH 7.4, 50 mM KCl, 0.5 mM MgCl2, 0.1 mM EDTA, 5% glycerol, 0.1 mg/ml BSA, 66.7 nM probe, room temperature 30 min; 1% agarose gel, 1X TAE, 4 C. The following applies: protein: recombinant; tags: N-terminal GST (pGEX-5x3); label: none (ethidium bromide post-stain); blunt. In general terms: A gel shift assay detects complexes by their altered migration in electrophoresis.
MeCP2 C-terminal fragment WT, sequence (P51608 274-340): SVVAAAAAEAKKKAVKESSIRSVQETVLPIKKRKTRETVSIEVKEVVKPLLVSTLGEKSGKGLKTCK

B1: 64-bp EMSA probe (dsDNA)
DNA 1: GGACTCCAGGTCCAGGACCGCGTTTTTCGCGCGCACGGCGCGGGAGGTCCAGCTGTCCACCTCC
DNA 2: GGAGGTGGACAGCTGGACCTCCCGCGCCGTGCGCGCGAAAAACGCGGTCCTGGACCTGGAGTCC
Consider B1, for which the binding result is recorded as “binds”.
